The supplement of paper PMC9112550, “Optimization of the antimicrobial peptide Bac7 by deep mutational scanning” (BMC Biology, 2022)

system: Escherichia coli TOP10; assay: shrunken log2 fold change of peptide-encoding DNA abundance (4.5 h post-induction vs induction); higher = less antimicrobial activity (less host growth inhibition); details: time post-induction: 4.5 h; library: site-saturation at positions 5, 18, 19, 20
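Note: peptides expressed intracellularly from a pBAD plasmid library in pooled LB shake-flask culture, induced with 0.3% L-arabinose, DNA abundance read by NGS, three biological replicates, DESeq2 with apeglm shrinkage.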

Sequence	shrunken log2 fold change
RRIRQRPPRLPRPRPRPRPSPRP	0.112
RRIRPRPPRLPRPRPRPDVHPRP	-0.0196
RRIRSRPPRLPRPRPRPTAFPRP	0.534
RRIRHRPPRLPRPRPRPNYQPRP	-0.28
RRIRWRPPRLPRPRPRPFDVPRP	-0.00233
RRIRKRPPRLPRPRPRPAKYPRP	0.0456
RRIRNRPPRLPRPRPRPCAFPRP	-0.071
RRIRQRPPRLPRPRPRPDQWPRP	0.129
RRIRGRPPRLPRPRPRPTPVPRP	1.07
RRIRWRPPRLPRPRPRPKTIPRP	0.118
RRIRTRPPRLPRPRPRPITSPRP	0.0903
RRIRCRPPRLPRPRPRPPCSPRP	-0.315
RRIRGRPPRLPRPRPRPSREPRP	0.51
RRIRVRPPRLPRPRPRPALDPRP	0.357
RRIRDRPPRLPRPRPRPSERPRP	0.0188
RRIRVRPPRLPRPRPRPSKGPRP	-0.276
RRIRSRPPRLPRPRPRPDFVPRP	-0.106
RRIRQRPPRLPRPRPRPFSVPRP	-0.199
RRIRGRPPRLPRPRPRPIWVPRP	-0.0275
RRIRKRPPRLPRPRPRPPTFPRP	0.149
RRIRGRPPRLPRPRPRPFALPRP	0.278
RRIRKRPPRLPRPRPRPKYVPRP	0.0381
RRIRQRPPRLPRPRPRPRAYPRP	-0.0505
RRIRERPPRLPRPRPRPDNIPRP	-0.745
RRIRIRPPRLPRPRPRPPRAPRP	0.417

Sequence	shrunken log2 fold change
RRIRARPPRLPRPRPRPWCWPRP	0.583
RRIRVRPPRLPRPRPRPSNTPRP	-0.417
RRIRNRPPRLPRPRPRPFMQPRP	-0.194
RRIRYRPPRLPRPRPRPECWPRP	0.192
RRIRIRPPRLPRPRPRPHAFPRP	-0.0152
RRIRRRPPRLPRPRPRPCMNPRP	-0.154
RRIRWRPPRLPRPRPRPTPIPRP	0.419
RRIRIRPPRLPRPRPRPQNEPRP	-0.226
RRIRKRPPRLPRPRPRPSMWPRP	1.63
RRIRFRPPRLPRPRPRPSVPPRP	-0.0911
RRIRTRPPRLPRPRPRPPRVPRP	0.334
RRIRVRPPRLPRPRPRPLRDPRP	0.725
RRIRKRPPRLPRPRPRPWETPRP	0.696
RRIRQRPPRLPRPRPRPSCEPRP	0.0555
RRIRERPPRLPRPRPRPQLPPRP	0.021
RRIRKRPPRLPRPRPRPDWIPRP	-0.0252
RRIRKRPPRLPRPRPRPYYVPRP	-0.197
RRIRHRPPRLPRPRPRPGTCPRP	-0.318
RRIRQRPPRLPRPRPRPMWRPRP	0.279
RRIRHRPPRLPRPRPRPLQSPRP	-0.0699
RRIRARPPRLPRPRPRPNEWPRP	0.0144
RRIRGRPPRLPRPRPRPTFVPRP	0.782
RRIRARPPRLPRPRPRPWVRPRP	-0.323
RRIRHRPPRLPRPRPRPTTCPRP	-0.278
RRIRHRPPRLPRPRPRPWYAPRP	-0.41

Sequence	shrunken log2 fold change
RRIRFRPPRLPRPRPRPCGGPRP	0.12
RRIRIRPPRLPRPRPRPNTRPRP	-0.507
RRIRCRPPRLPRPRPRPVELPRP	0.103
RRIRVRPPRLPRPRPRPAAQPRP	0.433
RRIRCRPPRLPRPRPRPVICPRP	-0.241
RRIRRRPPRLPRPRPRPFCGPRP	0.143
RRIRSRPPRLPRPRPRPVTAPRP	-0.0769
RRIRLRPPRLPRPRPRPCRYPRP	-0.0582
RRIRCRPPRLPRPRPRPSPFPRP	-0.0566
RRIRIRPPRLPRPRPRPDPNPRP	-0.546
RRIRRRPPRLPRPRPRPDCCPRP	0.168
RRIRTRPPRLPRPRPRPKPQPRP	0.203
RRIRQRPPRLPRPRPRPRVDPRP	0.241
RRIRPRPPRLPRPRPRPLWHPRP	-0.0751
RRIRYRPPRLPRPRPRPGPYPRP	-0.771
RRIRTRPPRLPRPRPRPIWCPRP	-0.0116
RRIRNRPPRLPRPRPRPGFTPRP	0.0826
RRIRDRPPRLPRPRPRPRERPRP	0.352
RRIRFRPPRLPRPRPRPGCIPRP	-0.241
RRIRGRPPRLPRPRPRPAMVPRP	0.252
RRIRLRPPRLPRPRPRPPTLPRP	0.4
RRIRDRPPRLPRPRPRPHPFPRP	0.0528
RRIRHRPPRLPRPRPRPTCDPRP	-0.011
RRIRLRPPRLPRPRPRPFAMPRP	-0.407
RRIRKRPPRLPRPRPRPPCFPRP	0.211

Sequence	shrunken log2 fold change
RRIRLRPPRLPRPRPRPLNMPRP	-0.461
RRIRNRPPRLPRPRPRPDPIPRP	-0.143
RRIRKRPPRLPRPRPRPPNMPRP	0.0839
RRIRMRPPRLPRPRPRPDCAPRP	1.95
RRIRRRPPRLPRPRPRPWRTPRP	-0.0112
RRIRMRPPRLPRPRPRPMPAPRP	1.07
RRIRDRPPRLPRPRPRPAPCPRP	0.658
RRIRQRPPRLPRPRPRPNKEPRP	0.00917
RRIRPRPPRLPRPRPRPLGKPRP	-0.361
RRIRFRPPRLPRPRPRPLINPRP	-0.421
RRIRPRPPRLPRPRPRPMRWPRP	0.707
RRIRCRPPRLPRPRPRPLPMPRP	0.074
RRIRYRPPRLPRPRPRPIDKPRP	-0.00865
RRIRLRPPRLPRPRPRPWDMPRP	-0.235
RRIRHRPPRLPRPRPRPPLCPRP	0.0792
RRIRKRPPRLPRPRPRPVTTPRP	0.0429
RRIRWRPPRLPRPRPRPMNKPRP	-0.267
RRIRHRPPRLPRPRPRPGTEPRP	-0.0642
RRIRDRPPRLPRPRPRPPLAPRP	0.448
RRIRERPPRLPRPRPRPIFNPRP	-0.663
RRIRMRPPRLPRPRPRPHAVPRP	0.353
RRIRIRPPRLPRPRPRPLMEPRP	-0.278
RRIRVRPPRLPRPRPRPDTQPRP	0.0912
RRIRHRPPRLPRPRPRPMKYPRP	-0.0485
RRIRIRPPRLPRPRPRPQEQPRP	-0.0376

Sequence	shrunken log2 fold change
RRIRWRPPRLPRPRPRPRRCPRP	0.224
RRIRLRPPRLPRPRPRPECVPRP	0.148
RRIRIRPPRLPRPRPRPQKPPRP	-0.00327
RRIRFRPPRLPRPRPRPTAGPRP	0.0761
RRIRLRPPRLPRPRPRPTKTPRP	-0.0526
RRIRPRPPRLPRPRPRPIECPRP	-0.206
RRIRYRPPRLPRPRPRPEIMPRP	-0.272
RRIRTRPPRLPRPRPRPVFLPRP	-0.56
RRIRWRPPRLPRPRPRPGIDPRP	0.117
RRIRKRPPRLPRPRPRPPVYPRP	0.387
RRIRLRPPRLPRPRPRPGCHPRP	-0.268
RRIRNRPPRLPRPRPRPVLWPRP	0.00135
RRIRKRPPRLPRPRPRPHKWPRP	-0.0776
RRIRKRPPRLPRPRPRPKCDPRP	0.405
RRIRERPPRLPRPRPRPFVTPRP	-0.865
RRIRFRPPRLPRPRPRPKVHPRP	0.146
RRIRSRPPRLPRPRPRPIMHPRP	-0.455
RRIRMRPPRLPRPRPRPYRPPRP	-0.117
RRIRLRPPRLPRPRPRPIWNPRP	0.0155
RRIRHRPPRLPRPRPRPMYLPRP	-0.412
RRIRTRPPRLPRPRPRPHEIPRP	0.00283
RRIRVRPPRLPRPRPRPSVWPRP	0.102
RRIRSRPPRLPRPRPRPCCSPRP	-0.00502
RRIRFRPPRLPRPRPRPQSFPRP	0.00824
RRIRVRPPRLPRPRPRPRRKPRP	0.0637

Sequence	shrunken log2 fold change
RRIRPRPPRLPRPRPRPLLVPRP	0.1
RRIRIRPPRLPRPRPRPPQDPRP	0.0725
RRIRWRPPRLPRPRPRPSIMPRP	-0.0893
RRIRIRPPRLPRPRPRPVKPPRP	0.0254
RRIRERPPRLPRPRPRPSHVPRP	-2.72
RRIRSRPPRLPRPRPRPSEYPRP	-0.306
RRIRRRPPRLPRPRPRPGNQPRP	0.0401
RRIRQRPPRLPRPRPRPFNRPRP	-0.0328
RRIRWRPPRLPRPRPRPTQIPRP	0.132
RRIRERPPRLPRPRPRPMQYPRP	-0.271
RRIRWRPPRLPRPRPRPTMKPRP	-0.0612
RRIRRRPPRLPRPRPRPTHKPRP	0.783
RRIRRRPPRLPRPRPRPKFNPRP	0.00967
RRIRRRPPRLPRPRPRPCYAPRP	1.3
RRIRVRPPRLPRPRPRPPPCPRP	0.358
RRIRLRPPRLPRPRPRPFTMPRP	-0.764
RRIRMRPPRLPRPRPRPSIQPRP	0.0104
RRIRHRPPRLPRPRPRPRFTPRP	0.007
RRIRIRPPRLPRPRPRPAPWPRP	0.0917
RRIRYRPPRLPRPRPRPRTIPRP	-0.228
RRIRPRPPRLPRPRPRPCFKPRP	-0.341
RRIRQRPPRLPRPRPRPDFNPRP	-0.164
RRIRHRPPRLPRPRPRPMMCPRP	-0.0874
RRIRFRPPRLPRPRPRPGSMPRP	-0.255
RRIRLRPPRLPRPRPRPGQDPRP	0.0899
